# Laboratory results taken from patent US20040235717A1, “Suppression of androgen receptor transactivation through new pathways to ar and ar coactivators and repressors” (priority 2001, published 2004).
# B1: ARf: the interaction domain within AR (aa; 483-651) (protein)
# chain: YTRPPQGLAGQESDFTAPDVWYPGGMVSRVPYPSPTCVKSEMGPWMDSYSGPYGDMRLETARDHVLPIDYYFPPQKTCLICGDEASGCHYGALTCGSCKVFFKRAAEGKQKYLCASRNDCTIDKFRRKNCPSCRLRKCYEAGMTLGARKLKKLGNLKLQEEGEASSTTS
# modifications: left off: small tags and cut ends
# B2: PTEN-#1: PTEN fragment (aa, 1-107) that does not interact with AR (protein)
# chain: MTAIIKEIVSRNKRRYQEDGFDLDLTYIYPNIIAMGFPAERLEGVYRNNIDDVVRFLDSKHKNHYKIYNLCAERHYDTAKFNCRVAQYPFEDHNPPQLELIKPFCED
# modifications: left off: a dimerising Fc or GST
# Key:
# AR protein levels = test: AR protein (Western blot) and AR mRNA (Northern blot) levels; format: cell-based; details: LNCaP; 10 nM DHT
# AR transactivation [1] = test: AR transactivation, MMTV-luc / (ARE)4-luc luciferase reporter assay; format: cell-based; details: LNCaP
# LNCaP cells = test: PTEN-induced apoptosis in LNCaP cells, TUNEL assay; format: cell-based
# [2] = test system: interaction between AR and PTEN; test: Co-immunoprecipitation of AR and PTEN in CWR22 cells; format: cell-based, human
# Method: 28. […] (C) The cell lysates from the CWR22 were immunoprecipitated by anti-PTEN antibody, followed by Western blot analysis. […] The cells were harvested for co-immunoprecipitation. Lane 1: 10% input; Lane 2: IP by non-immune IgG; Lane 3: IP by anti-AR antibody; Lane 4: The PTEN protein was depleted from the cell lysates by anti-PTEN antibody before IP by anti-AR antibody; Lane 5: IP by anti-PTEN antibody. (E) CWR22 cells were transfected with vector or Akf for 48 h and the cells were harvested for immunoprecipitation assay.
# 314. The immunoprecipitation and Western blotting were performed as previously described (Qiu et al. (1998) Nature 393, 83-5). The cell extracts (1 mg) were immunoprecipitated with the indicated antibody. The immunocomplexes were subjected to 8% SDS-PAGE and immunoblotted with the indicated antibody.
# U87MG cells = test: PTEN-induced apoptosis in AR-negative U87MG cells, TUNEL assay; format: cell-based
# Method: (§1) 31. […] (D) The LNCaP cells were transfected with plasmids as indicated for 16 h, and the medium was changed to 0.1% CDS media for 2 days. The cell apoptosis was determined by TUNEL assay (E) The LNCaP cells were transfected with plasmids as indicated for 16 h, harvested, and the cell extracts were subjected to SDS-PAGE. The Akt activity was determined by Western blotting using phospho(S473)-Akt antibody. (F) The U87MG cells were transfected with plasmids as indicated for 16 h, and the medium was changed 0.1% CDS media for 2 days. The cell apoptosis was determined by TUNEL assay. Data for luciferase activity and apoptosis are means±s.d. from three independent experiments.
# 311. For the apoptosis assay, the cells were transfected with plasmids for 24 h and grown in 0.1% charcol-stripped serum (CDS) media. The apoptosis was determined 2 days after transfection using the TUNEL assay according to the standard procedures (Oncogene). At least 200 cells were scored for each sample and data are means±s.d. from three independent experiments.
# AR transactivation [3] = test: AR transactivation, (ARE)4-luc in CWR22 cells; format: cell-based, human
# Method: as §1
# 312. […] The cells were lysed and the luciferase activity was detected by the dual luciferase assay according to standard procedures.
# Akt = Akt activity in LNCaP cells, Western blot with phospho-Akt (Ser473) antibody; format: cell-based; details: LNCaP
# Method: 18. […] (A) Akt suppressed androgen/AR-induced p21 promoter activity. […] (B) Androgen/AR-induced PC-3(AR)6 apoptosis and p21 protein expression was blocked by Akt PC-3(AR)6 was transfected with pCDNA3, cAkt, or dAkt, as indicated, for 16 h. […] (C) AR-induced p21 protein expression was enhanced by dAkt in LNCaP cells. […] LNCaP stable transfection with dAkt was confirmed by western blot assay using phospho-Akt (Ser473) antibody. […] TPA was then added for another 24 h and cell apoptosis was determined by TUNEL assay. […] IGF-1 was added for another 30 min, followed by 10 nM TPA treatment for another 24 h. The apoptosis was determined by TUNEL assay. The data are means±s.d. from three independent experiments.
# as §1
Molecule,Effect on PTEN-mediated promotion of AR degradation (AR protein levels),Effect on PTEN suppression of AR transactivation (AR transactivation [1]),Effect on PTEN-induced apoptosis (LNCaP cells),Interaction between AR and PTEN [2],Effect on PTEN-induced apoptosis (U87MG cells),Effect on PTEN suppression of AR transactivation (AR transactivation [3]),Effect on PTEN-mediated inhibition of Akt activity (Akt),"Effect on PTEN functions (AR degradation, AR transactivation) (AR transactivation [1])"
B1,dramatically reduce,dramatically reduce,markedly reduced PTEN-induced apoptosis,disrupted the interaction between AR and PTEN,only marginal effects,significantly reduce PTEN suppressive effect on AR transactivation,little influence,
B2,,,,,,,,only marginal effect
